Experimental data from article PMC6506404.
Each block holds one substance with its values, some of them ahead of it.

What was measured:
Experiment in all cases: cryo-EM structure
[1] = target: BMC-T^D2 shell protein of the Haliangium ochraceum (HO) BMC shell (Haliangium ochraceum) (UniProt D0LID6)
[2] = target: BMC-T^D3 shell protein of the Haliangium ochraceum (HO) BMC shell (Haliangium ochraceum) (UniProt D0LV02)
[3] = target: BMC-T^S1 shell protein of the Haliangium ochraceum (HO) BMC shell (Haliangium ochraceum)

stoichiometry N [1]: 6
Substance: BMC-T^D2 shell protein of the Haliangium ochraceum (HO) BMC shell (from UniProt D0LID6 1-212) (natural protein)

stoichiometry N [2]: 6
Substance: BMC-T^D3 shell protein of the Haliangium ochraceum (HO) BMC shell (from UniProt D0LV02 1-206) (natural protein)

stoichiometry N [3]: 3
Substance: BMC-T^S1 shell protein of the Haliangium ochraceum (HO) BMC shell (natural protein)
